What was measured:
Format in all cases: cell-based
[1] = tested on: Pseudomonas aeruginosa Standard Strain (ATCC 27853); experiment: Bacteria growth curve (A595 nm cloudiness), Pseudomonas aeruginosa; details: drug 5 μg/ml, 37° C., A595 nm per hour
Experimental: The experimental bacterium was Pseudomonas aeruginosa Standard Strain (ATCC 27853) purchased from the Center for General Microorganism of the Administration (CGMCC). 5 microliter bacteria solution (10^6 CFU/ml level bacterium amount) was added into 10 ml MH culture solution. Seven groups are prepared. 0.3 M NaCl+50 mM boric acid buffer fluid which amount was identical to amount of antibiosis polypeptide liquid in the experimental group was added as control in the first group, 5 μg/ml wild-type colicin Ia was added in the second group, 5 μg/ml PMC-SA1 was added in the third group, and 5 μg/ml PMC-PA was added in the fourth group.
(§1) Liquid in the above groups was put into 100 ml conical flask, 200 rpm, grew at 37° C. 100 μl was sampled per hour, and added onto 96-hole Elisa Plate to measure bacteria grown cloudiness by spectrophotometer (A595 nm) color comparison. The bacteria growth curve was drawn up to compare the bacteriostasis efficacy of antibiosis polypeptide.

[2] = tested on: ATCC 25923 penicillin-sensitive Staphylococcus aureus; experiment: Bacteria growth curve (A595 nm cloudiness), penicillin-sensitive Staphylococcus aureus; details: drug 100 ng/ml, 37° C., A595 nm per hour
Experimental: The bacterium was United States Reference Culture ATCC 25923 penicillin-sensitive Staphylococcus aureus. 2 microliter of bacteria solution (10^5 CFU/ml) was added into 10 ml culture solution containing 1% tryptone, 1% NaCl, 0.5% yeast extract, 0.5% glucose and 0.1% K2HPO4, totally prepared six groups. The first group as control was added 0.3 M NaCl+50 mM boric acid buffer fluid (i.e. blank preservative fluid for novel antibiotic, wild-type colicin Ia and protein produced by BL-21 engineering bacteria without plasmid, by the same volumes of antibiosis polypeptide liquid in the experimental group, the second group was added penicillin G sodium by 100 ng/ml, the third group was added wild-type colicin Ia by 100 ng/ml, the fourth group was added protein produced by BL-21 engineering bacteria without plasmid by 100 ng/ml, the fifth group was added recombinant protein that C-terminus of colicin Ia is fused other eight peptides by 100 ng/ml, and the sixth group was added the novel antibiotic PMC-SA1 by 100 ng/ml.
The solutions of the six groups were respectively put into 100 ml conical flask, 200 rpm, grew at 37° C. 100 μl was sampled per hour, and added onto 96 hole ELISA Plate and measured bacterium growth cloudiness by spectrophotometer (A595 nm) color comparison. The bacteria-growth curve was drawn up to compare the bacteriostasis efficacy of novel antibiosis.

[3] = tested on: Staphylococcus aureus (MRSA); experiment: MIC by Agar Doubling Dilution Method, clinical isolates
Outline: (§2)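 MIC = lowest drug level in agar showing no bacterial growth after 18-24 h at 37° C. Spots of 10^5 CFU/ml were multipoint-inoculated onto MH agar with twofold drug dilutions; enterococci used MH plus 5-10% rabbit blood under 5% CO2.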

[4] = tested on: Staphylococcus aureus (MSSA); experiment: as above; details: MSSA clinical strains
Outline: as §2

E. coli = experiment: as above; details: E. coli clinical strains
Outline: as §2

Baumanii = experiment: as above; details: Baumanii clinical strains
Outline: as §2

[5] = tested on: Staphylococcus epidermidis (MRSE); experiment: as above; details: MRSE clinical strains
Outline: as §2

[6] = tested on: Staphylococcus epidermidis (MSSE strain); experiment: as above; details: MSSE clinical strains
Outline: as §2

[7] = tested on: Staphylococcus epidermidis reference culture No. 26069; experiment: Bacteria growth curve (A595 nm cloudiness), Staphylococcus epidermidis; details: drug 2 μg/ml, 37° C., A595 nm per hour
Experimental: The bacterium is Staphylococcus epidermidis reference culture No. 26069, purchased from China Center of Culture Collection (National Institute for the Control of Pharmaceutical and Biological Products). 3 microliter of bacterium solution (10^6 CFU/ml level bacterium amount) was added into 10 ml culture solution containing 1% peptone, 1% NaCl, 0.5% yeast extract, 0.5% glucose and 0.1% K2HPO4. Totally four groups were prepared. The first group as control was added 0.3M NaCl+50 mM boric acid buffer fluid by the same volume with that of antibiosis polypeptide liquid added in any experimental groups, the second group was added penicillin G sodium by 2 μg/ml, PMC-SA1 and PMC-SE was added in the other experimental groups by 2 μg/ml (0.3 M NaCl+50 mM boric acid buffer fluid was preservative fluid).
as §1, with “The solution of” for “Liquid in the”, “96-pore ELISA plate” for “96-hole Elisa Plate”, “the novel antibiotics.” for “antibiosis polypeptide.”

B1: PMC-SA1: Staphylococcus aureus pheromone AgrD I linked to C-terminus of allosteric colicin Ia′; SEQ ID NO. 13; plasmid pBHC-SA1 (protein)
chain: SDPVRITNPAAESLGYDSDGREIMGVDIYLNPPRVDVFKGTPPAWSSFGNKTIWGGNEWVDDSPTRSDIEKRDKEITAYKNTLSAQQKENENKRTEAGKRLSAAIAAREKDENTLKTLRAGNADAADITRQEFRLLQAELREYGFRTEIAGYDALRLHTESRMLFADADSLRISPREARSLIEQAEKRQKDAQNADKKAADMLAEYERRKGILDTRLSELEKNGGAALAVLDAQQARLLGQQTRNDRAISEARNKLSSVTESLNTARNALTRAEQQLTQQKNTPDGKTIVSPEKFPGRSSTNHSIVVSGDPRFAGTIKITTSAVIDNRANLNYLLSHSGLDYKRNILNDRNPVVTEDVEGDKKIYNAEVAEWDKLRQRLLDARNKITSAESAVNSARNNLSARTNEQKHANDALNALLKEKENIRNQLSGINQKIAEEKRKQDELKATKDAINFTTEFLKSVSEKYGAKAEQLAREMAGQAKGKKIRNVEEALKTYEKYRADINKKINAKDRAAIAAALESVKLSDISSNLNRFSRGLGYAGKFTSLADWITEFGKAVRTENWRPLFVKTETIIAGNAATALVALVFSILTGSALGIIGYGLLMAVTGALIDESLVEKANKFWGIYSTCDFIM
modifications: The peptide of PMC-SA1
notes: Staphylococcus aureus pheromone AgrD I linked to C-terminus of allosteric colicin Ia′; 13; plasmid pBHC-SA1
- growth of Pseudomonas aeruginosa (bacteria growth curve) [1]: can not be effectively restrained
- growth of penicillin-sensitive Staphylococcus aureus (bacteria-growth curve) [2]: restrained
- MIC50 ([3]; MRSA clinical strains): 8 to 16 µg/mL
- MIC90 ([3]; MRSA clinical strains): >16 µg/mL
- Scope of MIC ([3]; MRSA clinical strains): <0.25 to 64 µg/mL
- in vitro antibacterial activity relative to oxacillin, standardized by same drug molecular number in unit volume ([3]; Staphylococcus aureus, MRSA): 1,240 times
- in vitro antibacterial activity relative to vancomycin, standardized by same drug molecular number in unit volume ([3]; Staphylococcus aureus, MRSA): three
- MIC50 [4]: 0.5 µg/mL
- MIC90 [4]: 16 µg/mL
- MIC50 (E. coli): 16 µg/mL
- MIC90 (E. coli): >32 µg/mL
- MIC50 (Baumanii): 32 µg/mL
- MIC90 (Baumanii): >64 µg/mL
- MIC50 [5]: >64 µg/mL
- MIC90 [5]: >64 µg/mL
- MIC50 [6]: 1 µg/mL
- MIC90 [6]: 32 µg/mL
- Scope of MIC [6]: 0.25 to 64 µg/mL
- growth of Staphylococcus epidermidis (bacteria growth curve) [7]: partly restrained

— US8563503B2, “Antibiotic, its nucleotide sequence, methods of construction and uses thereof” (Protein Design Lab. Ltd., priority 2011, dated 2013)
